# From PMC10540216, “Activity Guided Azide-methyllysine Photo-trapping for Substrate Profiling of Lysine Demethylases” (Journal of the American Chemical Society, 2023)
# Test system: KDM4A-I71AzF
# Experiment: CASI: photo-crosslinking with HEK293T cell extracts, StrepTactin enrichment and LC-MS/MS proteomics;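 also: lysates from HEK293T cells pretreated with a KDM4 inhibitor to raise proteome methylation, affinity-purified after ±UV, gel-resolved, trypsin-digested, with exclusive unique peptides per protein averaged per condition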
# Type: binding, human
# Details: sheet "Final results but with 0.01"
row,Molecule,Fold change (+UV/-UV)
1,"LMNA_HUMAN (protein, UniProt P02545 1-661, looked up) Prelamin-A/C: METPSQRRATRSGAQASSTPLSPTRITRLQEKEDLQELNDRLAVYIDRVRSLETENAGLRLRITESEEVVSREVSGIKAAYEAELGDARKTLDSVAKERARLQLELSKVREEFKELKARNTKKEGDLIAAQARLKDLEALLNSKEAALSTALSEKRTLEGELHDLRGQVAKLEAALGEAKKQLQDEMLRRVDAENRLQTMKEELDFQKNIYSEELRETKRRHETRLVEIDNGKQREFESRLADALQELRAQHEDQVEQYKKELEKTYSAKLDNARQSAERNSNLVGAAHEELQQSRIRIDSLSAQLSQLQKQLAAKEAKLRDLEDSLARERDTSRRLLAEKEREMAEMRARMQQQLDEYQELLDIKLALDMEIHAYRKLLEGEEERLRLSPSPTSQRSRGRASSHSSQTQGGGSVTKKRKLESTESRSSFSQHARTSGRVAVEEVDEEGKFVRLRNKSNEDQSMGNWQIKRQNGDDPLLTYRFPPKFTLKAGQVVTIWAAGAGATHSPPTDLVWKAQNTWGCGNSLRTALINSTGEEVAMRKLVRSVTVVEDDEDEDGDDLLHHHHGSHCSSSGDPAEYNLRSRTVLCGTCGQPADKASASGSGAQVGGPISSGSSASSVTVTRSYRSVGGSGGGSFGDNLVTRSYLLGNSSPRTQSPQNC",1.25
2,"LMNB1_HUMAN (protein, UniProt P20700 2-583, looked up) Lamin-B1: ATATPVPPRMGSRAGGPTTPLSPTRLSRLQEKEELRELNDRLAVYIDKVRSLETENSALQLQVTEREEVRGRELTGLKALYETELADARRALDDTARERAKLQIELGKCKAEHDQLLLNYAKKESDLNGAQIKLREYEAALNSKDAALATALGDKKSLEGDLEDLKDQIAQLEASLAAAKKQLADETLLKVDLENRCQSLTEDLEFRKSMYEEEINETRRKHETRLVEVDSGRQIEYEYKLAQALHEMREQHDAQVRLYKEELEQTYHAKLENARLSSEMNTSTVNSAREELMESRMRIESLSSQLSNLQKESRACLERIQELEDLLAKEKDNSRRMLTDKEREMAEIRDQMQQQLNDYEQLLDVKLALDMEISAYRKLLEGEEERLKLSPSPSSRVTVSRASSSRSVRTTRGKRKRVDVEESEASSSVSISHSASATGNVCIEEIDVDGKFIRLKNTSEQDQPMGGWEMIRKIGDTSVSYKYTSRYVLKAGQTVTIWAANAGVTASPPTDLIWKNQNSWGTGEDVKVILKNSQGEEVAQRSTVFKTTIPEEEEEEEEAAGVVVEEELFHQQGTPRASNRSC",0.7273
3,"NONO_HUMAN (protein, UniProt Q15233 1-471, looked up) Non-POU domain-containing …: MQSNKTFNLEKQNHTPRKHHQHHHQQQHHQQQQQQPPPPPIPANGQQASSQNEGLTIDLKNFRKPGEKTFTQRSRLFVGNLPPDITEEEMRKLFEKYGKAGEVFIHKDKGFGFIRLETRTLAEIAKVELDNMPLRGKQLRVRFACHSASLTVRNLPQYVSNELLEEAFSVFGQVERAVVIVDDRGRPSGKGIVEFSGKPAARKALDRCSEGSFLLTTFPRPVTVEPMDQLDDEEGLPEKLVIKNQQFHKEREQPPRFAQPGSFEYEYAMRWKALIEMEKQQQDQVDRNIKEAREKLEMEMEAARHEHQVMLMRQDLMRRQEELRRMEELHNQEVQKRKQLELRQEEERRRREEEMRRQQEEMMRRQQEGFKGTFPDAREQEIRMGQMAMGGAMGINNRGAMPPAPVPAGTPAPPGPATMMPDGTLGLTPPTTERFGQAATMEGIGAIGGTPPAFNRAAPGAEFAPNKRRRY",1.778
4,"RBMX_HUMAN (protein, UniProt P38159 1-391, looked up) RNA-binding motif protein, X …: MVEADRPGKLFIGGLNTETNEKALEAVFGKYGRIVEVLLMKDRETNKSRGFAFVTFESPADAKDAARDMNGKSLDGKAIKVEQATKPSFESGRRGPPPPPRSRGPPRGLRGGRGGSGGTRGPPSRGGHMDDGGYSMNFNMSSSRGPLPVKRGPPPRSGGPPPKRSAPSGPVRSSSGMGGRAPVSRGRDSYGGPPRREPLPSRRDVYLSPRDDGYSTKDSYSSRDYPSSRDTRDYAPPPRDYTYRDYGHSSSRDDYPSRGYSDRDGYGRDRDYSDHPSGGSYRDSYESYGNSRSAPPTRGPPPSYGGSSRYDDYSSSRDGYGGSRDSYSSSRSDLYSSGRDRVGRQERGLPPSMERGYPPPRDSYSSSSRGAPRGGGRGGSRSDRGGGRSRY",200
5,"TBB5_HUMAN (protein, UniProt P07437 1-444, looked up) Tubulin beta chain: MREIVHIQAGQCGNQIGAKFWEVISDEHGIDPTGTYHGDSDLQLDRISVYYNEATGGKYVPRAILVDLEPGTMDSVRSGPFGQIFRPDNFVFGQSGAGNNWAKGHYTEGAELVDSVLDVVRKEAESCDCLQGFQLTHSLGGGTGSGMGTLLISKIREEYPDRIMNTFSVVPSPKVSDTVVEPYNATLSVHQLVENTDETYCIDNEALYDICFRTLKLTTPTYGDLNHLVSATMSGVTTCLRFPGQLNADLRKLAVNMVPFPRLHFFMPGFAPLTSRGSQQYRALTVPELTQQVFDAKNMMAACDPRHGRYLTVAAVFRGRMSMKEVDEQMLNVQNKNSSYFVEWIPNNVKTAVCDIPPRGLKMAVTFIGNSTAIQELFKRISEQFTAMFRRKAFLHWYTGEGMDEMEFTEAESNMNDLVSEYQQYQDATAEEEEDFGEEAEEEA",0.75
6,"ATPA_HUMAN (protein, UniProt P25705 44-553, looked up) ATP synthase F(1) complex …: QKTGTAEMSSILEERILGADTSVDLEETGRVLSIGDGIARVHGLRNVQAEEMVEFSSGLKGMSLNLEPDNVGVVVFGNDKLIKEGDIVKRTGAIVDVPVGEELLGRVVDALGNAIDGKGPIGSKTRRRVGLKAPGIIPRISVREPMQTGIKAVDSLVPIGRGQRELIIGDRQTGKTSIAIDTIINQKRFNDGSDEKKKLYCIYVAIGQKRSTVAQLVKRLTDADAMKYTIVVSATASDAAPLQYLAPYSGCSMGEYFRDNGKHALIIYDDLSKQAVAYRQMSLLLRRPPGREAYPGDVFYLHSRLLERAAKMNDAFGGGSLTALPVIETQAGDVSAYIPTNVISITDGQIFLETELFYKGIRPAINVGLSVSRVGSAAQTRAMKQVAGTMKLELAQYREVAAFAQFGSDLDAATQQLLSRGVRLTELLKQGQYSPMAIEEQVAVIYAGVRGYLDKLEPSKITKFENAFLSHVVSQHQALLGTIRADGKISEQSDAKLKEIVTNFLAGFEA",1.4
7,"HNRPL_HUMAN (protein, UniProt P14866 1-589, looked up) Heterogeneous nuclear …: MSRRLLPRAEKRRRRLEQRQQPDEQRRRSGAMVKMAAAGGGGGGGRYYGGGSEGGRAPKRLKTDNAGDQHGGGGGGGGGAGAAGGGGGGENYDDPHKTPASPVVHIRGLIDGVVEADLVEALQEFGPISYVVVMPKKRQALVEFEDVLGACNAVNYAADNQIYIAGHPAFVNYSTSQKISRPGDSDDSRSVNSVLLFTILNPIYSITTDVLYTICNPCGPVQRIVIFRKNGVQAMVEFDSVQSAQRAKASLNGADIYSGCCTLKIEYAKPTRLNVFKNDQDTWDYTNPNLSGQGDPGSNPNKRQRQPPLLGDHPAEYGGPHGGYHSHYHDEGYGPPPPHYEGRRMGPPVGGHRRGPSRYGPQYGHPPPPPPPPEYGPHADSPVLMVYGLDQSKMNCDRVFNVFCLYGNVEKVKFMKSKPGAAMVEMADGYAVDRAITHLNNNFMFGQKLNVCVSKQPAIMPGQSYGLEDGSCSYKDFSESRNNRFSTPEQAAKNRIQHPSNVLHFFNAPLEVTEENFFEICDELGVKRPSSVKVFSGKSERSSSGLLEWESKSDALETLGFLNHYQMKNPNGPYPYTLKLCFSTAQHAS",1.125
8,"PAIRB_HUMAN (protein, UniProt Q8NC51 2-408, looked up) SERPINE1 mRNA-binding protein …: PGHLQEGFGCVVTNRFDQLFDDESDPFEVLKAAENKKKEAGGGGVGGPGAKSAAQAAAQTNSNAAGKQLRKESQKDRKNPLPPSVGVVDKKEETQPPVALKKEGIRRVGRRPDQQLQGEGKIIDRRPERRPPRERRFEKPLEEKGEGGEFSVDRPIIDRPIRGRGGLGRGRGGRGRGMGRGDGFDSRGKREFDRHSGSDRSSFSHYSGLKHEDKRGGSGSHNWGTVKDELTESPKYIQKQISYNYSDLDQSNVTEETPEGEEHHPVADTENKENEVEEVKEEGPKEMTLDEWKAIQNKDRAKVEFNIRKPNEGADGQWKKGFVLHKSKSEEAHAEDSVMDHHFRKPANDITSQLEINFGDLGRPGRGGRGGRGGRGRGGRPNRGSRTDKSSASAPDVDDPEAFPALA",0.8571
9,"ECHB_HUMAN (protein, UniProt P55084 34-474, looked up) Trifunctional enzyme subunit …: AAPAVQTKTKKTLAKPNIRNVVVVDGVRTPFLLSGTSYKDLMPHDLARAALTGLLHRTSVPKEVVDYIIFGTVIQEVKTSNVAREAALGAGFSDKTPAHTVTMACISANQAMTTGVGLIASGQCDVIVAGGVELMSDVPIRHSRKMRKLMLDLNKAKSMGQRLSLISKFRFNFLAPELPAVSEFSTSETMGHSADRLAAAFAVSRLEQDEYALRSHSLAKKAQDEGLLSDVVPFKVPGKDTVTKDNGIRPSSLEQMAKLKPAFIKPYGTVTAANSSFLTDGASAMLIMAEEKALAMGYKPKAYLRDFMYVSQDPKDQLLLGPTYATPKVLEKAGLTMNDIDAFEFHEAFSGQILANFKAMDSDWFAENYMGRKTKVGLPPLEKFNNWGGSLSLGHPFGATGCRLVMAAANRLRKEGGQYGLVAACAAGGQGHAMIVEAYPK",0
10,"EF1A1_HUMAN (protein, UniProt P68104 2-462, looked up) Elongation factor 1-alpha 1: GKEKTHINIVVIGHVDSGKSTTTGHLIYKCGGIDKRTIEKFEKEAAEMGKGSFKYAWVLDKLKAERERGITIDISLWKFETSKYYVTIIDAPGHRDFIKNMITGTSQADCAVLIVAAGVGEFEAGISKNGQTREHALLAYTLGVKQLIVGVNKMDSTEPPYSQKRYEEIVKEVSTYIKKIGYNPDTVAFVPISGWNGDNMLEPSANMPWFKGWKVTRKDGNASGTTLLEALDCILPPTRPTDKPLRLPLQDVYKIGGIGTVPVGRVETGVLKPGMVVTFAPVNVTTEVKSVEMHHEALSEALPGDNVGFNVKNVSVKDVRRGNVAGDSKNDPPMEAAGFTAQVIILNHPGQISAGYAPVLDCHTAHIACKFAELKEKIDRRSGKKLEDGPKFLKSGDAAIVDMVPGKPMCVESFSDYPPLGRFAVRDMRQTVAVGVIKAVDKKAAGAGKVTKSAQKAQKAK",0.9444
11,"IF4A2_HUMAN (protein, UniProt Q14240 1-407, looked up) Eukaryotic initiation factor …: MSGGSADYNREHGGPEGMDPDGVIESNWNEIVDNFDDMNLKESLLRGIYAYGFEKPSAIQQRAIIPCIKGYDVIAQAQSGTGKTATFAISILQQLEIEFKETQALVLAPTRELAQQIQKVILALGDYMGATCHACIGGTNVRNEMQKLQAEAPHIVVGTPGRVFDMLNRRYLSPKWIKMFVLDEADEMLSRGFKDQIYEIFQKLNTSIQVVLLSATMPTDVLEVTKKFMRDPIRILVKKEELTLEGIKQFYINVEREEWKLDTLCDLYETLTITQAVIFLNTRRKVDWLTEKMHARDFTVSALHGDMDQKERDVIMREFRSGSSRVLITTDLLARGIDVQQVSLVINYDLPTNRENYIHRIGRGGRFGRKGVAINFVTEEDKRILRDIETFYNTTVEEMPMNVADLI",200
